Laboratory results: patent publication US20200262913A1 (ZymoGenetics, published 2020)
Where a chain is given by its changes, count along the chain named. In names and notes the source's numbering stands.

T1: recombinant human IL-31 (as used in the NHK STAT3 phosphorylation assay of Example 5) (human, UniProt Q6EBC2 24-164, limits assumed)
T1 sequence: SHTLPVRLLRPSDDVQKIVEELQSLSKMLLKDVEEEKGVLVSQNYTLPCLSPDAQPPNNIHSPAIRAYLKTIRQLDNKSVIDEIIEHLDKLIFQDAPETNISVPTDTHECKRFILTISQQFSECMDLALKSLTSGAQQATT

T2: recombinant human IL-31 (hIL-31, BHK produced, A1277F, zcytor17lig CEE) (human, UniProt Q6EBC2 24-164)
T2 construct: also called recombinant hIL-31
T2 sequence: T1 sequence

B1: humanized 292.12.3.1 construct clone 8 (12VH5-gly + fback) (antibody, human IgG4, V domains shown)
VH: EVQLVQSGAEVKKPGESLKISCKASGYTLTRYWMQWVRQMPGKGLEWMGAIYPGDGDTRYSPSFQGQVTLTADKSISTAYLQWSSLKASDTAMYYCAFPDGYYAAPYGMDYWGQGTTVTVSS
VL: DIQMTQSPSSLSASVGDRVTITCRASGNIHNYLAWYQQKPGKVPKLLIYNAKTLADGVPSRFSGSRSETQYSLTISSLQPEDVATYYCQHFWSTPWTFGQGTKVEIKR
notes: also called 08
B2: humanized 292.12.3.1 construct clone 26 (12VH1-gly + HC(fback) + LC(F71Y)) (antibody, human IgG4, V domains shown)
VH: QVQLVQSGAEVKKPGASVKVSCKASGYTLTRYWMQWVRQAPGQGLEWMGAIYPGDGDTRYSQKFQGRVTLTADKSISTAYMELSSLRSEDTAVYYCAFPDGYYAAPYGMDYWGQGTLVTVSS
VL: B1 VL with R66G, E68G, Q70D, S72T
B3: humanized 292.12.3.1 construct clone 25 (12VH1-gly + HC(F29L, R94F) + LC(F71Y)) (antibody, human IgG4, V domains shown)
VH: B2 VH with L70M, A72R, K74T, A79V
VL: B1 VL with R66G, E68G, Q70D, S72T
B4: humanized 292.12.3.1 construct clone 13 (12VH1-gly + HC(F29L, M69L, R71A, T73K, V78A) + LC(fback)) (antibody, human IgG4, V domains shown)
VH: B2 VH with F98R
VL: B1 VL
B5: humanized 292.12.3.1 construct clone 18 (12VH1-gly + HC(fback) + LC(G66R, G68E, F71Y)) (antibody, human IgG4, V domains shown)
VH: B2 VH
VL: B1 VL with Q70D, S72T
B6: humanized 292.12.3.1 construct clone 16 (12VH1-gly + HC(fback) + LC(G66R, G68E, D70Q, T72S)) (antibody, human IgG4, V domains shown)
VH: B2 VH
VL: B1 VL with Y71F
B7: humanized 292.12.3.1 construct clone 7 (12VH1-gly + fback) (antibody, human IgG4, V domains shown)
VH: B2 VH
VL: B1 VL
notes: also called 07
B8: humanized 292.12.3.1 construct clone 9 (12VH1-gly + HC(fback)) (antibody, human IgG4, V domains shown)
VH: B2 VH
VL: B1 VL with R66G, E68G, Q70D, Y71F, S72T
notes: also called 09
B9: humanized 292.12.3.1 construct clone 14 (12VH1-gly + HC(M69L, R71A, T73K, V78A, R94F) + LC(fback)) (antibody, human IgG4, V domains shown)
VH: B2 VH with L29F
VL: B1 VL
B10: humanized 292.12.3.1 construct clone 17 (12VH1-gly + HC(fback) + LC(D70Q, F71Y, T72S)) (antibody, human IgG4, V domains shown)
VH: B2 VH
VL: B1 VL with R66G, E68G
B11: humanized 292.12.3.1 construct clone 10 (12VH1-gly + LC(fback)) (antibody, human IgG4, V domains shown)
VH: B2 VH with L29F, L70M, A72R, K74T, A79V, F98R
VL: B1 VL
B12: humanized 292.12.3.1 construct clone 21 (12VH5-gly + HC(G24A, S28T, F29L, R94F) + LC(fback)) (antibody, human IgG4, V domains shown)
VH: B1 VH with L70I, T71S
VL: B1 VL
B13: humanized 292.12.3.1 construct clone 11 (12VH5-gly + HC(fback)) (antibody, human IgG4, V domains shown)
VH: B1 VH
VL: B1 VL with R66G, E68G, Q70D, Y71F, S72T
B14: humanized 292.12.3.1 construct clone 23 (12VH5-gly + HC(fback) + LC(D70Q, F71Y, T72S)) (antibody, human IgG4, V domains shown)
VH: B1 VH
VL: B1 VL with R66G, E68G
B15: humanized 292.12.3.1 construct clone 22 (12VH5-gly + HC(fback) + LC(G66R, G68E, D70Q, T72S)) (antibody, human IgG4, V domains shown)
VH: B1 VH
VL: B1 VL with Y71F
B16: humanized 292.12.3.1 construct clone 24 (12VH5-gly + HC(fback) + LC(G66R, G68E, F71Y)) (antibody, human IgG4, V domains shown)
VH: B1 VH
VL: B1 VL with Q70D, S72T

Biological target: T1, recombinant human IL-31 (as used in the …)
Assay: cell-based or functional assay

IC50, IL-31-induced STAT3 phosphorylation in NHK, Exp 4 | IC50, IL-31-induced STAT3 phosphorylation in NHK, Exp 10 | IC50, IL-31-induced STAT3 phosphorylation in NHK, Exp 8 | IC50, IL-31-induced STAT3 phosphorylation in NHK, Exp 9 | IC50, IL-31-induced STAT3 phosphorylation in NHK, Exp 6 | IC50, IL-31-induced STAT3 phosphorylation in NHK, Exp 7 | Binder
6.74 nM | 3.44 nM |  |  |  |  | B1
 |  | 7.84 nM | 6.93 nM |  |  | B2
 |  | 5.85 nM | 7.28 nM |  |  | B3
 |  |  |  | 46.5 nM | 211 nM | B4
 |  |  |  | 2.6 nM | 2.68 nM | B5
 |  |  |  | 3.84 nM | 6.22 nM | B6
7.8 nM | 8.82 nM | 5.44 nM | 7.58 nM | 3.99 nM | 7.74 nM | B7
 |  | 6.59 nM | 7.1 nM | 3.25 nM | 7.37 nM | B8
 |  |  |  | 71.9 nM | 242 nM | B9
 |  |  |  | 6.65 nM | 5.29 nM | B10
 |  |  |  | 68.8 nM | 224 nM | B11

Biological target: T2, recombinant human IL-31 (hIL-31, BHK …)
Assay: SPR (Biacore), mAb amine-coupled to CM5 chip, hIL-31 injected
Procedure: (§1) The purified monoclonal antibodies were immobilized in individual flow cells on a CM5 type sensor chip. Immobilizations were performed using a standard amine coupling procedure, aiming for an immobilization level of 500 Resonance Units (RU). The antibodies were diluted to 1-5 ug/ml in 10 mM NaAc pH 4.5.
(§2) HPS-EP pH 7.4 (10 mM HEPES, 150 mM NaCl, 3 mM EDTA and 0.005% Polysorbat P20) was used as running buffer, and diluents for the recombinant hIL-31 (hIL-31, BHK produced, A1277F, zcytor17lig CEE). The hIL-31 was tested in a 3-fold dilution series from 333.3 nM to 1.4 nM. Association (injection) was 4 min., followed by a 20 min. dissociation (wash) period. Flow rate was 50 ul/min. Experiments were performed at 25OC. Regeneration of the surface was accomplished by injection of 30 sec. pulse of 10 mM Glycin-HCl pH 1.8 or 1M formic acid, at a 30 ul/min flow rate. Detection in all flow cells simultaneously. Flow cell #1 contained no immobilized antibody, and was used for subtraction of background and bulk.
(§3) The kinetic parameters were calculated by global fitting of the data using a 1:1 langmuir binding model. Data was inspected for mass-transport limitations prior to calculation of the kinetic parameters. In some experiments the Rmax was fitted locally, and the RI constant at 0.

Kd | koff | kon | Binder
1.9 nM | 5.4e-05 s⁻¹ | 28000 M⁻¹ s⁻¹ | B1
0.68 nM | 7e-05 s⁻¹ | 100000 M⁻¹ s⁻¹ | B2
1.4 nM | 9.7e-05 s⁻¹ | 69000 M⁻¹ s⁻¹ | B12
1.46 nM | 7.6e-05 s⁻¹ | 52000 M⁻¹ s⁻¹ | B13
0.85 nM | 7.2e-05 s⁻¹ | 85000 M⁻¹ s⁻¹ | B3
24 nM | 0.003 s⁻¹ | 120000 M⁻¹ s⁻¹ | B4
1.13 nM | 6.2e-05 s⁻¹ | 55000 M⁻¹ s⁻¹ | B5
1.2 nM | 7.5e-05 s⁻¹ | 61000 M⁻¹ s⁻¹ | B6
1.9 nM | 5.7e-05 s⁻¹ | 33000 M⁻¹ s⁻¹ | B7
1.4 nM | 9e-05 s⁻¹ | 65000 M⁻¹ s⁻¹ | B14
2.1 nM | 9e-05 s⁻¹ | 43000 M⁻¹ s⁻¹ | B8
12.5 nM | 0.00073 s⁻¹ | 59000 M⁻¹ s⁻¹ | B9
0.9 nM | 6.5e-05 s⁻¹ | 70000 M⁻¹ s⁻¹ | B10
1.7 nM | 0.00011 s⁻¹ | 67000 M⁻¹ s⁻¹ | B15
186 nM | 0.015 s⁻¹ | 88000 M⁻¹ s⁻¹ | B11

Biological target: recombinant human IL-31 (C108S), produced in E. coli by ZymoGenetics, MW 18 kDa (human), Q6EBC2
Assay: cell-based or functional assay

Average Fold loss in potency relative to 292.12.3.1, BAF-3(hIL-31R) proliferation assay | Average Potency (IC50), inhibition of hIL-31-induced proliferation of BAF-3(hIL-31R) cells | Binder
2.5 fold | 4.1 nM | B1
4 fold | 6 nM | B16
5.8 fold | 9.3 nM | B2
3.5 fold | 4.8 nM | B12
11.6 fold | 22.8 nM | B13
16.5 fold | 26.3 nM | B3
99.1 fold | 109 nM | B4
5.9 fold | 8.1 nM | B5
9.8 fold | 10.6 nM | B6
3.3 fold | 4.5 nM | B7
7.6 fold | 8.6 nM | B14
15.1 fold | 28.5 nM | B8
5.2 fold | 5.9 nM | B10
13.2 fold | 14 nM | B15

Biological target: T2, recombinant human IL-31 (hIL-31, BHK …)
Assay: SPR (Biacore), against parent 292.12.3.1
Procedure: as §1, §2, §3

Relative potency loss (KD) | Relative potency loss (kd) | Binder
~0.4 x to parent |  | B2
~0.5 x to parent |  | B3
~10 x to parent | ~50 x to parent | B4
~0.5 x to parent |  | B5
~0.5 x to parent |  | B6
~0.6 x to parent | ~1.5 x to parent | B14
 | ~1.5 x to parent | B8
~5.5 x to parent | ~12 x to parent | B9
~0.4 x to parent |  | B10
 | ~2 x to parent | B15
~85 x to parent | ~245 x to parent | B11
